Laboratory results published in patent US20110152341.
Substitutions are numbered along the chain they refer to.

Experiments:
[1] = molecular target: T1, APP-derived peptide substrate D597isoD, H-GLTNIKTEEISEVKMi…-NH2
T1 chain: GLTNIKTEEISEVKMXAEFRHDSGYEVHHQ

[2] = molecular target: T2, APP-derived peptide substrate swedish (sw), H-GLTNIKTEEISEVNLDAEFRHDSGYEVHHQ-NH2
T2 chain: T1 chain with K14N, M15L, X16D

[3] = molecular target: T3, APP-derived peptide substrate sw E599Q, H-GLTNIKTEEISEVNLDAQFRHDSGYEVHHQ-NH2
T3 chain: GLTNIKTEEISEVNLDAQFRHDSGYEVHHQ

[4] = molecular target: T4, APP-derived peptide substrate wildtyp (wt), H-GLTNIKTEEISEVKMDAEFRHDSGYEVHHQ-NH2
T4 chain: T1 chain with X16D

[5] = molecular target: T5, APP-derived peptide substrate sw D597isoD, H-GLTNIKTEEISEVNLi…-NH2
T5 chain: T1 chain with K14N, M15L

[6] = molecular target: T6, APP-derived peptide substrate E599Q, H-GLTNIKTEEISEVKMDAQFRHDSGYEVHHQ-NH2
T6 chain: T1 chain with X16D, E18Q

[7] = molecular target: Human APP wildtyp transiently overexpressed in HEK293 cells (pcDNA-hAPP)
[8] = molecular target: Human APP with swedish mutation K595N, M596L overexpressed in HEK293 cells (pcDNA-hAPPsw)
[9] = molecular target: Human APP with mutation E599Q overexpressed in HEK293 cells (pcDNA-hAPP/E3Q)
Chain of Human APP with mutation E599Q overexpressed in HEK293 cells (pcDNA-hAPP/E3Q) (chain, as listed by the source E599Q): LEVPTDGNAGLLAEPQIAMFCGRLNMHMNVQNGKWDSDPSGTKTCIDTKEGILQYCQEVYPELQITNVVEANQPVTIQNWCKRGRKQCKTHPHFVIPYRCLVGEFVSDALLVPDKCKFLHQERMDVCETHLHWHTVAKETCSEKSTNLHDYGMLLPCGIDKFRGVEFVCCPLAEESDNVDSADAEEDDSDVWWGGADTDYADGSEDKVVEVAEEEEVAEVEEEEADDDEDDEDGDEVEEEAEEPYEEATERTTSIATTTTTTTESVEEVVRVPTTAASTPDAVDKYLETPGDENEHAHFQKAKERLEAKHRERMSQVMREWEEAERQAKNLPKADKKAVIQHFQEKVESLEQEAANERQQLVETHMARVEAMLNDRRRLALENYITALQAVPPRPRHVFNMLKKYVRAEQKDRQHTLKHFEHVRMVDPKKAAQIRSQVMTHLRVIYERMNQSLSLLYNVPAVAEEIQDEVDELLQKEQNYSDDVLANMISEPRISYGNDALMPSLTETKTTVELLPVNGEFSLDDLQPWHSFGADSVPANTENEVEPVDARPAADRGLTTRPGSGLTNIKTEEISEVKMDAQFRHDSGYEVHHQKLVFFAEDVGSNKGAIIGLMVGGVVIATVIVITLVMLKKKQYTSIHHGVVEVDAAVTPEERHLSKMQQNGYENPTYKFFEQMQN

B1: Recombinant human meprin α (R&D systems) (protein)
chain: VPIKYLPEENVHDADFGEQKDISEINLAAGLDLFQGDILLQKSRNGLRDPNTRWTFPIPYILADNLGLNAKGAILYAFEMFRLKSCVDFKPYEGESSYIIFQQFDGCWSEVGDQHVGQNISIGQGCAYKAIIEHEILHALGFYHEQSRTDRDDYVNIWWDQILSGYQHNFDTYDDSLITDLNTPYDYESLMHYQPFSFNKNASVPTITAKIPEFNSIIGQRLDFSAIDLERLNRMYNCTTTHTLLDHCTFEKANICGMIQGTRDDTDWAHQDSAQAGEVDHTLLGQCTGAGYFMQFSTSSGSAEEAALLESRILYPKRKQQCLQFFYKMTGSPSDRLVVWVRRDDSTGNVRKLVKVQTFQGDDDHNWKIAHVVLKEEQKFRYLFQGTKGDPQNSTGGIYLDDITLTETPCPTGVWTVRNFSQVLENTSKGDKLQSPRFYNSEGYGFGVTLYPNSRESSGYLRLAFHVCSGENDAILEWPVENRQVIITILDQEPDVRNRMSSSMVFTTSKSHTSPAINDTVIWDRPSRVGTYHTDCNCFRSIDLGWSGFISHQMLKRRSFLKNDDLIIFVDFEDITHLSQTEVPTKGKRLSPQGLILQGQEQQVSEEGSGKAMLEEALPVSLSQGQPSRQKRSVENTGPLEDHNWPQYFRDPCDPNPCQNDGICVNVKGMASCRCISGHAFFYTGERCQAV
peptide cleavage, fragments by MALDI-TOF mass spectrometry (numbering according to substrate 1-30) [1]: The fragments 5-30, 7-30, 1-21, 1-15, 17-30 and 16-30 were identified. | peptide cleavage, fragments by MALDI-TOF mass spectrometry (numbering according to substrate 1-30) [2]: The fragments 5-30, 7-30 and 16-30 were identified. | peptide cleavage, fragments by MALDI-TOF mass spectrometry (numbering according to substrate 1-30) [3]: The fragments 1-21, 7-30 and 5-30 were identified. | peptide cleavage, fragments by MALDI-TOF mass spectrometry (numbering according to substrate 1-30) [4]: The fragments 5-30, 7-30, 17-30 and 16-30 were identified. | peptide cleavage, fragments by MALDI-TOF mass spectrometry (numbering according to substrate 1-30) [5]: The fragments 5-30 and 7-30 were identified. | peptide cleavage, fragments by MALDI-TOF mass spectrometry (numbering according to substrate 1-30) [6]: The fragments 5-30, 7-30, 5-21, 12-30 and 7-21 were identified.

B2: Human meprin β transiently overexpressed in HEK293 cells (pcDNA-hMPβ) (protein)
chain: NSIIGEKYRWPHTIPYVLEDSLEMNAKGVILNAFERYRLKTCIDFKPWAGETNYISVFKGSGCWSSVGNRRVGKQELSIGANCDRIATVQHEFLHALGFWHEQSRSDRDDYVRIMWDRILSGREHNFNTYSDDISDSLNVPYDYTSVMHYSKTAFQNGTEPTIVTRISDFEDVIGQRMDFSDSDLLKLNQLYNCSSSLSFMDSCSFELENVCGMIQSSGDNADWQRVSQVPRGPESDHSNMGQCQGSGFFMHFDSSSVNVGATAVLESRTLYPKRGFQCLQFYLYNSGSESDQLNIYIREYSADNVDGNLTLVEEIKEIPTGSWQLYHVTLKVTKKFRVVFEGRKGSGASLGGLSIDDINLSETRCPHHIWHIRNFTQFIGSPNGTLYSPPFYSSKGYAFQIYLNLAHVTNAGIYFHLISGANDDQLQWPCPWQQATMTLLDQNPDIRQRMSNQRSITTDPFMTTDNGNYFWDRPSKVGTVALFSNGTQFRRGGGYGTSAFITHERLKSRDFIKGDDVYILLTVEDISHLNSTQIQLTPAPSVQDLCSKTTCKNDGVCTVRDGKAECRCQSGEDWWYMGERCEKRGSTRDTIVIAVSSTVAVFALMLIITLVSVYCTRKKYRERMSSNRPNLTPQNQHAF
amount of secreted Aβ (ELISA from IBL, non specific for the Aβ N-terminus) [7]: significantly increased for APPwt and APP/E3Q | generated Aβ species by urea western-blot after immuno-precipitation [7]: revealed the formation of an additional Aβ species after co-transfection with hAPP and human meprin β compared to transfection with hAPP. This additional Aβ species co-migrates with Aβ3-40. | secreted Aβ estimated with antibody 6E10 (ELISA) [7]: Secretion of Aβ is significantly increased after transfection with pcDNA-hMPβ and pcDNA-hAPP wildtyp, swedish and E3Q. | secretion of Aβ (ELISA, IBL kit with antibody 6E10), with and without 20 µM actinonin [7]: Secretion of Aβ is significantly increased in HEK293 after transient overexpression of hAPP and hMPβ (see FIG. 26). This increase is reduced to almost the basal level by the addition of 20 µM actinonin. | secreted Aβ estimated with antibody 6E10 (ELISA) [8]: Secretion of Aβ is significantly increased after transfection with pcDNA-hMPβ and pcDNA-hAPP wildtyp, swedish and E3Q. | amount of secreted Aβ (ELISA from IBL, non specific for the Aβ N-terminus) [9]: significantly increased for APPwt and APP/E3Q | secreted Aβ estimated with antibody 6E10 (ELISA) [9]: Secretion of Aβ is significantly increased after transfection with pcDNA-hMPβ and pcDNA-hAPP wildtyp, swedish and E3Q.

B3: Recombinant human meprin β (R&D systems) (protein)
chain: TPENFDVDGGMDQDIFDINEGLGLDLFEGDIRLDRAQIRNSIIGEKYRWPHTIPYVLEDSLEMNAKGVILNAFERYRLKTCIDFKPWAGETNYISVFKGSGCWSSVGNRRVGKQELSIGANCDRIATVQHEFLHALGFWHEQSRSDRDDYVRIMWDRILSGREHNFNTYSDDISDSLNVPYDYTSVMHYSKTAFQNGTEPTIVTRISDFEDVIGQRMDFSDSDLLKLNQLYNCSSSLSFMDSCSFELENVCGMIQSSGDNADWQRVSQVPRGPESDHSNMGQCQGSGFFMHFDSSSVNVGATAVLESRTLYPKRGFQCLQFYLYNSGSESDQLNIYIREYSADNVDGNLTLVEEIKEIPTGSWQLYHVTLKVTKKFRVVFEGRKGSGASLGGLSIDDINLSETRCPHHIWHIRNFTQFIGSPNGTLYSPPFYSSKGYAFQIYLNLAHVTNAGIYFHLISGANDDQLQWPCPWQQATMTLLDQNPDIRQRMSNQRSITTDPFMTTDNGNYFWDRPSKVGTVALFSNGTQFRRGGGYGTSAFITHERLKSRDFIKGDDVYILLTVEDISHLNSTQIQLTPAPSVQDLCSKTTCKNDGVCTVRDGKAECRCQSGEDWWYMGERCEKRGSTRDT
peptide cleavage, fragments by MALDI-TOF mass spectrometry (numbering according to substrate 1-30) [1]: The fragments 1-15, 1-16, 17-30 and 16-30 were identified. | peptide cleavage, fragments by MALDI-TOF mass spectrometry (numbering according to substrate 1-30) [2]: The fragments 16-30, 17-30 1-15 and 18-30 were identified. | peptide cleavage, fragments by MALDI-TOF mass spectrometry (numbering according to substrate 1-30) [3]: The fragments 16-30, 1-15, 9-21 and 9-20 were identified. | peptide cleavage, fragments by MALDI-TOF mass spectrometry (numbering according to substrate 1-30) [4]: The fragments 1-16, 1-15, 17-30, and 18-30 were identified. | peptide cleavage, fragments by MALDI-TOF mass spectrometry (numbering according to substrate 1-30) [5]: The fragment 12-30 were identified. | peptide cleavage, fragments by MALDI-TOF mass spectrometry (numbering according to substrate 1-30) [6]: The fragments 8-30, 9-30, 1-22, 1-21, 12-30 17-30 18-30 9-21 were identified.
